The assay addresses T1, His-SUMO-tagged SARS-CoV-2 nsp14 N-terminal ExoN domain (residues 1 to 289) (SARS-CoV-2).
T1 chain: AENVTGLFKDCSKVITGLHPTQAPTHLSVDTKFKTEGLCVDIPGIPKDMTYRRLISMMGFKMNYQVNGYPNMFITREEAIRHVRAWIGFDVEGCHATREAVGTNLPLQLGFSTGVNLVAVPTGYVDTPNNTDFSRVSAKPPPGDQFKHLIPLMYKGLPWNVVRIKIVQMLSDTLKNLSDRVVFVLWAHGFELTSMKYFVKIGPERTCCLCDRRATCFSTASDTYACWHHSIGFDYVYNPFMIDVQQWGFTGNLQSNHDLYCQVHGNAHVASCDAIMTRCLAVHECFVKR
The assay can be described thus: MST. The settings on record: both partners purified.

B1: SARS-CoV-2 non-structural protein 10 (nsp10), full-length, without affinity tag (natural protein)
chain: AGNATEVPANSTVLSFCAFAVDAAKAYKDYLASGGQPITNCVKMLCTHTGTGQAITVTPEANMDQESFGGASCCLYCRCHIDHPNPKGFCDLKGKYVQIPTTCANDPVGFTLKNTVCTVCGMWKGYGCSCDQLREPMLQ
As to B1, binding was put at a Kd of 900 ± 300 nM.

Source of the values: publication PMC8729259 (RSC Chemical Biology, 2021).
